For this assay, the target named is tau-CFP/YFP protein biosensors (UniProt P10636). Kind of assay: cell-based or functional assay.
tau-CFP/YFP protein biosensors, sequence (P10636 561-689, form in doubt): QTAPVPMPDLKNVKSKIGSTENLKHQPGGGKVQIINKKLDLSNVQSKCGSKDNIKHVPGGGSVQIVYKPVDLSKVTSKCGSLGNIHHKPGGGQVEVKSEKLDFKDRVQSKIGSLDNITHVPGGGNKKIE

recombinant full-length (2N,4R) tau fibrils, preparation C (50 µM octadecyl sulfate, 37° C.), sequence (P10636 other isoform, or with tags, fused parts or gaps limits assumed): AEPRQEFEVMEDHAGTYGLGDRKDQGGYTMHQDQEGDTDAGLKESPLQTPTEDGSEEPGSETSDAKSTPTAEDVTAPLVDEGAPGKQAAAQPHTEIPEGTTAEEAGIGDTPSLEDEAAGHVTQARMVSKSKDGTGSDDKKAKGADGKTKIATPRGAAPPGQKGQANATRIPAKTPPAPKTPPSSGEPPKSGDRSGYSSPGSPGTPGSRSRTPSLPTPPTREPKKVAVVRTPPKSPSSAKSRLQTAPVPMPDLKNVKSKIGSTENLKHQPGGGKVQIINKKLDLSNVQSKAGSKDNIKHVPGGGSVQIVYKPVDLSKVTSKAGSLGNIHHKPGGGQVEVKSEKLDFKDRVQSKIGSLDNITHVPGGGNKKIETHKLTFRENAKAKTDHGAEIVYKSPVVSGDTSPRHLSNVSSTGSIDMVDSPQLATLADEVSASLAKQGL
recombinant full-length (2N,4R) tau fibrils, preparation B (8 µM heparin, 22° C.), sequence (P10636 other isoform, or with tags, fused parts or gaps limits assumed): as above
recombinant full-length (2N,4R) tau fibrils, preparation A (8 µM heparin, 37° C.), sequence (P10636 other isoform, or with tags, fused parts or gaps limits assumed): as above

On to “recombinant full-length (2N,4R) tau fibrils, preparation A (8 µM heparin, 37° C.) (from UniProt P10636 2-441)”, for which the EC50 (pM) of seeding, FRET flow cytometry in biosensor cell line is under 1 pM and the Plateau (fold increase) of seeding, FRET flow cytometry in biosensor cell line (fold increase) worked out at 6.67.
On the same counts, the results for “recombinant full-length (2N,4R) tau fibrils, preparation B (8 µM heparin, 22° C.) (from UniProt P10636 2-441)” are 4.3 pM and 6.55.
With “recombinant full-length (2N,4R) tau fibrils, preparation C (50 µM octadecyl sulfate, 37° C.) (from UniProt P10636 2-441)”, the EC50 (pM) of seeding, FRET flow cytometry in biosensor cell line turned out to be 141 pM and the Plateau (fold increase) of seeding, FRET flow cytometry in biosensor cell line (fold increase) was 4.19.

(Values after US20150126390A1.)
